According to article PMC3667720:

Molecular target: β-actin (human (endogenous in MDA-MB-231)) (UniProt P60709)
Assay: FRET or BRET

FRET efficiency (control siRNA, 0 min EGF): 4.34% | FRET efficiency (β1 integrin siRNA, 0 min EGF): 3.85% | increase in FRET efficiency 3 min after EGF against 0 min (control cells): 40%
Substance: cofilin (from UniProt P23528 1-166) (natural protein)
